The series in a line: soluble on expression in E. coli; label from the status in PepcDB or PDB records.
Turning to “GHMQEKPPKELVNEWSLKIRKEMRVVDRQIRDIQREEEKVKRSVKDAAKKGQKDVCIVLAKEMIRSRKAVSKLYASKAHMNSVLMGMKNQLAVLRVAGSLQKSTEVMKAMQSLVKIPEIQATMRELSKEMMKAGIIEEMLEDTFESMDDQEEMEEEAEMEIDRILFEITAGALGKAPSKVTDALPEPEPPGAMAASEDEEEEEEALEAMQSRLATLRS”, the “soluble on expression in E. coli” value is given as “soluble”.
Regarding “MKFPFHPWRRLLLCALPFAALLTACDDGKKEPPPKPAEVTTYNSVPWDALPATSDADLLAGFNAWRSACARLAKDPVWGEPCASATTVAADPTAVRAFLQERMQVYSLRSSSNGDQGLITGYYEPVYHGSLSQGEKTPVPVYGVPDDLVVVALESVYPELKGKRLRGRLEGRVLKPYDDAATIRDNGSSAPVLAWLGDPMDLQFLQIQGSGRIQLEDGRQLRIGYGDQNGHPYKPVGRWLVEQGLVPKEEISMKRIRDWAEANPQRVSELLASNPSFVFFSLRPDSDEGPRGSLNVPLTDGYSVAIDRKVIPLGSLMWLSTTRPDDGSAVVRPVAAQDTGGAIVGEVRADLFWGTGDAAGELAGHMKQPGRLWLLWPKGAPLPAS”, the “soluble on expression in E. coli” value was “not soluble”.
For “MGHHHHHHSHLFQGDDAKEKIAVVDETNELYPVFSKQLKAVDTDGDLDVKLSKQSEDEVTKQVKDESLDGMLIIKRDEKGTISGTYKALTISDESTYQTLQQALTQTKTAVGTAELGVSQETISSLYAPVTVGQKALKEGAKSEEELGQT”, the “soluble on expression in E. coli” value was “not soluble”.
Under “MVLVLAEIITVGDELLTGNTVDSNSAYIAQRLTEKGFWVRRITTVGDDVKEIENAVREAISRKPEVLIISGGLGPTHDDVTMLGVANAIGRKLKLCEDCLERIKEFYEELHRKGLIDDPTLNEARKKMAYLPEGSEPLNNTEGAAPGAYVEYEGVKIFILPGMPREMKAMLESEVLPRLGERKFVQKKFLAEITDESKLAPILEDTIERFKVKIHSSPKGFGKYIGIIIFAEDDEVIGKVIRYIEGKGIKFREGW” stands “soluble”; under “MHHHHHHSSGVDLGTENLYFQSNAMMKAYQREFIEFALEKQVLKFGEFTLKSGRKSPYFFNAGLFNTGRDLARLGRFYAAALVDSGIEFDVLFGPAYKGIPIATTTAVALADHHDVDTPYCFNRKEAKNHGEGGNLVGSKLEGRVMLVDDVITAGTAIRESMELIQANKADLAGVLVAIDRQEKGKGELSAIQEVERDFGCAVISIVSLTDLITYLEQQGNNTEHLEAVKAYRAQYGI”, “soluble”.
With “MTLSGGTIDILKTRSLAKLQGSKEVMKQKLEIPIHGSVTDNIFSEVRDSFRRNFTEGWEKAGAAFCVIHKGKVIVDLWGGYADKECFKEWKEDTISTIFSCTKSVTAICFAILVDRGLLKYSDKVTKYWPEFGQNGKQDITIEMVLSHTAGLPYFPGVKFTEEDLTDNNKLSHMIENLKPVFAPGTRTAYHALTFGWLTDQIFRRVDSQKRTVGQFFKDEIATKHYIDIHIGECSNEENRLARLFKCPATLVSREIAYDRSILKLARYYYNPRGLFAAARRNLSLHGSDFTMFNNSDLRVVGQPAVNGIGSARAMAQLHQLVLDGTLLSKETFDIIKHPRKMTSFDYLIGEPQNKEHGFTYFKSPLNTWQFGHPGVGGQMVRVDVENDLIVAYLTNGMKTAGCEDHVFTFNRLQRKVYECLKRIPKFELPPPEDIVENE”, the “soluble on expression in E. coli” value is reported as “not soluble”.
Under “SDITLESLRHIIAQVLPHRDPALVFKDLNVVSMLQEFWESKQQQKAAFPSEGVVVYESLPAPGPPFVSYVTLPGGSCFGNFQCCLSRAEARRDAAKVALINSLFNELPSRRITKEFIMESVQEAVASTSGTLDDADDPSTSVGAYHYMLESNMGKTMLEFQELMTIFQLLHWNGSLKALRETKCSRQEVISYYSQYSLDEKMRSHMALDWIMKERDSPGIVSQELRMALRQLEEARKAGQELRFYKEKKEILSLALTQICSDPDTSSPSDDQLSLTALCGYH” stands “soluble”; under “MHSENQSKGVHYAKSQRLLEINHAHLQLMESLLDEGKKYNIFKPGIDPLQVNINIAALGGYYLINQHTLGLVYHISMVSPQALEARRKVIKETILSWLLVDPSSTAHE”, “not soluble”.
Under “MSIKSDSRHLYLQVIDRIKRDIETGVYKEKQKLPSEFELAKQLGVSRATLREALRVLEEENIIIRRHGVGTFVNARPLFTSGIEQLSSVTDMIRQAGRKPGTIFLSSSIQQPTEDDMRRFQCRPDENLLLIERVRTADGEPVVYCLDKILCKYLPKGISYEHESLFENLHNQTHRDIAYAVARIVPLGYHEKVSPILQCDPETALLVLKQMHFDKNDEPIFYSVNYFRSDKFSFHVMRKRFSF” stands “not soluble”.
In the case of “MGSDKIHHHHHHMRKDGHMQLQTIKVQGFKSIRELEFSLRPLNILIGANGSGKSNILGVFAFLRAMVERHLQMYVARAGGADRILHFGQKNTDSLQIELWFTKKNRRARGNIIANGYRCALVPAVGDRFVFAEERAFFHDRRYEKPVETLLGSGHEESLLPASYGRGIPADVFEAMQSWIVYHFHDTSDSARVKQTGDIDDNYWLRQDASNLTAYLYYIQQQAPDHYRNIVDVIRMVAPFFDDFVLRPSPFNPNKIKLEWRERGSDTYFDAYALSDGTLRFICLATLLLQPARKFPAIILLDEPEMGLHPYAIHVLAELLHSAATQTQVIVATQSVTLVNQFEPEDIVVVERQDGQPVCRRLTMEETETWLDGYGLGDLWEKNILGGRPLP”, the “soluble on expression in E. coli” value is recorded as “not soluble”.
Under “MSLIVRRYLKQDLCAVARLEVRSFEIGPYDKEYLREVLENASSISYIAQISDKIVGYIVAMPLNSQEIDIESIATDPDFRKRSIGTRLIARIENESKSLGYRNIILEVRKENIEAISFYSRLGFNIKEFIVNYYEEYYRGSRDAYRMVKSLSEGHHHHHH” stands “not soluble”; under “SKSNLEYSFSNILKNIFSPIREKESVKKVIYYSIPIALTTASYRLVNDLDGIFILSMLGAYDNGVYGY”, “not soluble”.
Under “MLVLIRVFNTLGRRKEVFNPYSPPLVGMYVCGPTVYDYTHIGHARTFTVFDAIKRYLRLRGYDVFHVQNITDIDDKIINRAREEGRDWREIVREYSRDYLEGLGSLGIQIDHHPRVTDHISDIIRFIEGLIEKGYAYVAESGSVYFEVDKYPGYGMLSGHLSKEAWRQEEDVLHEKKSPYDFALWKAAKPGEPSWESPWGRGRPGWHIECSVMSSRYLGSRIDIHGGGVDLVFPHHENERAQSESYFGHRWVRYWLHASYLTIKGEKMSKSLGNIIPLREALREWGPGPLRLWLLSSHYRSNLDYSEEALGQYRRLYERLRQAADSIGRRLERAEPKGRLGEGELETVERLKGVVRRWHEAMSDDFNMGKAMSSLWEFTTIYFREVEQTESYTLLWLSWRILTGFNSVYAFAPDIVEARRPERSLEDSLVQALVDVRSELRRRKMYDLADEIRSRLAQLGFVLHDKGEKTEWRRR” stands “soluble”.
Under “MKSVVSSRETRSESNKSRRTFASTEWNKIIRETLYLETIYIPLDATSHSPDIIFQLQSPVEPKVLTVGVACKGRWKSEGIGWSDIIDEAKKFLDPVYDQVLSSAMDYHHCMLIIVSTKLSLNVSNELGNQSRCYSSGMFIRGDSFKVPDNCELVILCERDVQMLIDEEILSGLERAFHVSRSPTFWDFRLDLLVNLQ” stands “not soluble”.
For “IDQLNRNQLDLGMCYVDQVNTAYFDVIELDSTKLGVLFDERHFDFAESEVLWESLNNIPLGLLSKGMHYRHSIDLSFVSKGLVPQTVIESNSTFHLIQAVTSGLCCAIMPLNCGLEELNDTLRIIPIEEAAVHAPLGLLKRKQEPFSALTDQCFAEAKNIFNR”, the “soluble on expression in E. coli” value is reported as “not soluble”.
In the case of “AHHHHHHGSLVITPRRLHLGIIDPTGSLGRRFGSLGVALEGGYEIRITPADSLKIEAEKEDKETIKETIEKLNFEYDTGFGFYIEVRKSIPRHIGLGSTTQLTLGIAMGILKLLHKDVPVEEVAKILGRGKNSGVGIYAFKYGGFVVDGGVKDSVPPLLVRKDFPEDWAFLLVIPQVKRGFDEKEEQKIMEKPFGSASIAKEISYRILLGLLPALAEKNIEEFGRYLSTIQTLVGSSFSDFQGGEFREDIRLIVEFLNEITYGAGQSSWGPTVYGLIKRAEYQRVASRVAEFLDEQGIKAKIELGIPRNRGAEVKGESLFLERLIKSVSQ”, the “soluble on expression in E. coli” value is recorded as “soluble”.
Under “MAPLETIYDESLNKSADSIDDKKWSKLFPRIVSDPDRSSNFMTRAIYVAFSAVLRNRNILGQEYFTKNYITEKLKCMTLCFRNPRSNQIAQLLRNAGDATKDGFLKEVSLVITNNEGDLEAIEVFSMKFIYFENGGVVARLSTDKNGQEDPHFAKLAQLVYEGGDSVRDQMVTIVRSVQFLCTKVLEPLPEEFTANFRLEYTNDAPSNFRIDGFEDSSTFYTLPDDIQSATIGHLRPGCHAANMECWSMLMSDSYEAELTLKRHLDKVSDRHGFNPVNVLYKSFNSEDSDTSLSQATTESVNDQGGNETSPVDDITESLEKAQMSPIQTRPTTRRGADGSKTRSSPYSRSCK” stands “not soluble”; under “MGSDKIHHHHHHSCSSKPANTAKGEKGSDKTGKDLELKLSFQEGIAPGESLNEKLDFMEKLGVVGFEPGGGGLAGRVNEIKQALNGRNIKVSAICAGFKGFILSTDPAIRKECMDTMKEIIAAAGELGSTGVIIVPAFNGQVPALPHTMETRDFLCEQFNEMGTFAAQHGTSVIFEPLNRKECFYLRQVADAASLCRDINNPGVRCMGDFWHMTWEETSDMGAFISGGEYLQHVHVASRKRRSMPGEDGDADNYINGFKGLKMIGYNNYVSFECGCQGDRNVVVPAAVKLLREQWEQA”, “not soluble”.
Under “MEIDDCIRDNIPWANLSPDIKVILGNSSKEYEKRVLEYSIQNQLRYKGNLIRHMKKSEEAYYEQLLRFSESHLMLYPYHLSDITVTEMRLSPFSYYANILTEMLNTEKSYDSLPNFTAADAVRLLGIGRNQYIELMNQTRSNRKFLRRSKSARELLPQKPTKMIVESWWRTNVGSILESDVKTLNEEEKQVIDRLLDTNVAIPAGLLKYSVVTSLYDRGLIYFDVPVYDNDYIYVAPLDGFVMNRVLGDYFETLLYKIFVAIDDQTTVLEMSQILHIDLQLVKNAISVFCRLGFARKRVTGGENLTIHTSWTSNSTVTTPMSPISPMSSLITSTSDELNELTKTLLRGDDDETDDALSPVSEDSALRASSPNPSLNNSVESFQSLSTSQTASDLSGSSGTVNRAAFIFDSTLTAFLMMGNLSASLKGHAVALFEVGKLADEQMKEFLEQLESVNQFAEGDAQRYSMHATALLDSLKSLRQEREADLIRGESLYTLDEKSRQRVLQKSYGILVAMAPLSIEACAIPVQSVPLIGPPNAETCSPWFRLSIYSACSSGPPSVFLPHGTRLTTLPRVLQSFQHHRFLVSSTKHEPHIMTAQNALFALNDMLVYSSIFVQSVPLDSEDCDKMIHVPFPFEDLECETAFCNHPAIRKLREQLSLDFTAGYVILLKKSGKSITTSGSDISGRTKAESNIMQDVSLPKDGGLLKKLLPGTSFDDFLLLDCVFGVPLFNSVLNETICKRILGRGILEQQNRSNIQNSNKQVVGMINELIDTANNGLIKGSQLFVEGTDQQRNAQIVPPVRAIFFDSSQLISYGTI” stands “not soluble”.
Regarding “KCGFSYGVGFNVFNYKAVVTKYNNPEGIIYNNHTGLAANKGYYEGMDIGEIWGYRADDLFLSNREIDDYLRNVNLTAFKSNDLWRRGDLKYIDSNGDGRVDGGKGTLADHGDLQIIGNTTPKYSFGINLNLGYKGFEVSTLLQGVAKRDFPISGSNYMFGGNNYNFKEHLDYFSTENPNGYLPRLTGWKDDKDFLVNTGYNTTRYLLNAAYMRMKNLTVAYTFNKKQLKHIGISNLKVYVTCDNLFTVTKLPKQFDPETLNQVNMSAGGDAQNTAPGLTSPMKQNGNGMVYPMNRNFVFGLDFTF”, the “soluble on expression in E. coli” value was “not soluble”.
